Legend:
[1] = target: T1, His-tagged Cpe1tox^C362A (catalytically inactive toxin domain) (Escherichia coli strain ATCC 11775, UniProt P0DXX9 338-479, C362A); assay: BLI
T1 sequence: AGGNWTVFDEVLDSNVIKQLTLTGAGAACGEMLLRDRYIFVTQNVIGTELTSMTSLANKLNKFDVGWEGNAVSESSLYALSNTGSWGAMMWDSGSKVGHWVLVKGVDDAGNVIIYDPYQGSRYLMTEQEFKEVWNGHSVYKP

[2] = target: ATPase domain of ParE, strep-tagged (E. coli); assay: BLI; […]; 30 °C; PBS with 0.2% BSA, 0.02% Tween-20; association and dissociation 120 s; […]
[3] = target: T2, His-tagged Cpe1tox^C362A (catalytically inactive toxin domain) (Escherichia coli strain ATCC 11775, UniProt P0DXX9 338-479, C362A); assay: BLI; […]; 30 °C; PBS with 0.2% BSA, 0.02% Tween-20; association 150 s, dissociation 300 s; 1:1 global fit; settings: both partners purified
T2 construct: not shown: His6, N-terminal, kept
T2 sequence: T1 sequence

B1: ATPase domain of ParE, strep-tagged (domain or fragment)
chain: MTQTYNADAIEVLTGLEPVRRRPGMYTDTTRPNHLGQEVIDNSVDEALAGHAKRVDVILHADQSLEVIDDGRGMPVDIHPEEGVPAVELILCRLHAGGKFSNKNYQFSGGLHGVGISVVNALSKRVEVNVRRDGQVYNIAFENGEKVQDLQVVGTCGKRNTGTSVHFWPDETFFDSPRFSVSRLTHVLKAKAVLCPGVEITFKDEINNTEQRWCYQDGLNDYLAEAVNGLPTLPEKPFIGNFAGDTEAVDWALLWLPEGGELLTESYVNLIPTMQGGTHVNGLRQGLLDAMREFCEYRNILPRGVKLSAEDIWDRCAYVLSVKMQDPQFAGQTKERLSSRQCAAFVSGVVKDAFILWLNQNVQAAELLAEMAISSAQRRMRAAKKVVRKK
modifications: C-terminal strep tag left out. Limits are not given; 1-390 is taken from the 43-kDa ATPase domain in PDB 1S16 (390 aa), which the paper uses for ParE. The K-12 strain is inferred.
For B1, the koff [1] was 0.47 s⁻¹.

B2: His-tagged Cpe1tox^C362A (catalytically inactive toxin domain) (domain or fragment)
chain: T1 sequence
B2 gave a Kd [2] of 343 nM.

B3: strep-tagged Cpi1 (wild type) (natural protein)
chain: MGIVFTNHNIDLLSVEFDEITKNCNYTFSVDGETAIFTARISIIRNIKGIKYSEELDKFIMSIMPLQPKVSKILGGVTWDCICGKEVGFPVRLIGK
notes: source: E. coli BL21 (DE3), pETDuet-1, purified (streptavidin resin, gel filtration)
Work on B3 yielded a koff [1] of 0.00303 s⁻¹ and a Kd [3] of 8.58 nM.

From PMC12136450 (PLOS Biology, 2025)
